Results: US8715970B2, “Enzymatically catalyzed method of preparing mono-acylated polyols” (BASF SE, priority 2009, dated 2014)

Experiments:
Format in all cases: biochemical
[1] = Active site titration with inhibitor and activity measurement after inhibition (Example 1); conditions: for Share of immobilized enzyme inhibited (activity measurements after inhibition): 50 μM inhibitor in acetonitrile, activity with 1-butanol and vinyl butyrate in MTBE
Protocol: The amount of enzyme loaded on the carriers was confirmed by active site titration using the inhibitor methyl 4-methylumbelliferyl hexylphosphonate. Inhibitor from an ampoule stored in a freezer (−20° C.) was dissolved to a concentration of 50 μM in acetonitrile. The inhibitor was previously synthesized and used for active site titration of CALB as described in Magnusson, A. O., et al., Creating space for large secondary alcohols by rational redesign of Candida antarctica lipase B. Chembiochem, 2005. 6(6): p. 1051-1056 and Rotticci, D., et al., An active-site titration method for lipases. Biochimica Et Biophysica Acta-Molecular and Cell Biology of Lipids, 2000. 1483(1): p. 132-140.
Inhibition reactions were run in three separate vials each containing 50 mg enzyme carrier beads with immobilized CALB wild type and T40A-mutant. The wild type was run in one of the reaction vials, and the other two contained T40A-mutant. The enzymes were incubated in 1 ml of 50 μM inhibitor dissolved in acetonitrile. Each vial were sealed and covered in aluminium foil, to prevent light from damaging the fluorophore, and stored in continuous end over end. Aliquots were taken after 2, 5 and 9 days. […] Analysis was preformed by fluorescence using a Perkin Elmer LS 50 B fluorimeter. […] Fluorescence was also measured in two different control samples. Inhibitor, 50 μM in acetonitrile, was incubated without enzyme for control of background fluorescence from spontaneous hydrolysis of the methyl 4-methylumbelliferyl hexylphosphonate. In addition to this, 50 mg of each enzyme was incubated in acetonitrile without inhibitor for control of any background fluorescence from the immobilized enzyme. The total fluorescence from these samples was subtracted from the fluorescence measured in the inhibition reactions. […]
Remaining activity was measured after inhibition. […] For comparison, the reaction was repeated with the enzyme used for control of background fluorescence. […] The amounts of immobilized enzymes taken from the fluorescence controls used in the reactions were 2.8 mg of the wild type and 9.0 T40A. […]

[2] = Acylation of 1,2-ethanediol in competition with 1-butanol (Example 4)
Protocol: Additionally, 1-butanol, ≧99.5% from Riedel-de Haën, was used as a competing substrate.
25 mM decane ≧98% from Fluka, was used as internal standard.
Two different acyl donors were used:
Ethyl acetate, ≧99% from Fluka, used as both solvent and acyl donor
1 M Vinyl butyrate, >99% from Fluka, together with in MTBE, 99.5% from Lab-Scan, used as solvent.
Each diol was dissolved to a concentration of 100 mM together with 25 mM of decane in ethyl acetate, ≧99% from Fluka, used as acyl donor and solvent. Reactions were started by adding 3 ml reaction solution to 10 mg enzyme carrier beads loaded with wild-type CALB or 20 mg carrier beads loaded with T40A mutated CALB. Reactions were run at 29° C. in a temperature bath consisting of a HETO thermostat coupled to a Bom-roerder combined temperature bath and magnetic stirrer. 25 mM decane was used as internal standard were present in the reaction solution throughout both reaction and analysis. Aliquots of 60 μl were taken, filtered through wool in a Pasteur pipette together with 540 μl ethyl acetate prior to analysis. The filtration through wool removed any remaining enzyme from the reaction solution, and the reaction samples were diluted by a factor of 10 prior to analysis.
(§1) All reactions were analyzed on GC, Hewlett Packard 5890 series II. Two different 25 m×0.32 mm WCOT fused silica columns were used, depending on the different substrates and products that were analyzed. A polar GC-column with CP Chirasil-Dex CB coating was used for the reactions with 1,2-ethanediol. A non-polar GC-column with CP-SIL 5CB coating was used for the reactions with 1,4-butanediol.
(§2) The response factor for each diol was determined in relationship to decane. When all diol and mono-ester had converted to di-ester, the response factor for the di-ester could be determined in relationship to decane. The concentration of mono-ester in each reaction was determined by subtracting the concentration of di-ester from the starting concentration of diol.

[3] = Enzyme-catalyzed acylation of 2-phenyl-1,3-propanediol with ethyl acetate as acyl donor (Example 2); conditions: 2-Ph-1,3-propanediol 20 mM in ethyl acetate; for Maximum monoester yield: 29° C.
Protocol: Each diol was dissolved to a concentration of 20 mM together with 5 mM of 3-hexanone in ethyl acetate, ≧99% from Fluka, which was used as acyl donor and solvent. Reactions were started by adding 4 ml reaction solution to 20 mg enzyme carrier beads loaded with either wild-type or T40A mutated CALB. Reactions were run at 29° C. on a HLC rotating thermo block. Aliquots of 50 μl were taken, filtered through wool in a Pasteur pipette and diluted with 50 μl ethyl acetate prior to analysis. The 3-hexanon used as internal standard were present in the reaction solution throughout both reaction and analysis.
5 mM 3-hexanone was used as internal standard in the reaction mixtures together with 20 mM diol. Aliquots were taken during the reaction by taking 50 μl of reaction sample. The samples were filtered though wool together with 50 μl ethyl acetate, thereby any remaining enzyme were removed and the reaction samples were diluted by a factor of 2 prior to analysis.
The reactions catalyzed by the T40A-mutant were rerun with 100 mg enzyme carrier beads for determination of maximum monoester yield. The reactions with 2-methyl-1,3-propanediol and 2-phenyl-1,3-propanediol were rerun at 100 mM concentration of diol and 50 mg enzyme carrier beads, both with CALB wild type and CALB T40A-mutant. This was done in order to determine the enantiomeric excess.
as §1, with “1,2-ethanediol and 1,3-propanediol.” for “1,2-ethanediol.”, “1,4-butanediol, 2-methyl-1,3-propanediol and 2-phenyl-1,3-propanediol.” for “1,4-butanediol.”
as §2, with “relationship to 3-hexanone. When all” for “relationship to decane. When all”

B1: WT: non-mutated Candida antarctica lipase B (CALB), SEQ ID NO: 2, immobilized on carrier beads (protein, listed as Candida antarctica)
chain: LPSGSDPAFSQPKSVLDAGLTCQGASPSSVSKPILLVPGTGTTGPQSFDSNWIPLSAQLGYTPCWISPPPFMLNDTQVNTEYMVNAITTLYAGSGNNKLPVLTWSQGGLVAQWGLTFFPSIRSKVDRLMAFAPDYKGTVLAGPLDALAVSAPSVWQQTTGSALTTALRNAGGLTQIVPTTNLYSATDEIVQPQVSNSPLDSSYLFNGKNVQAQAVCGPLFVIDHAGSLTSQFSYVVGRSALRSTTGQARSADYGITDCNPLPANDLTPEQKVAAAALLAPAAAAIVAGPKQNCEPDLMPYARPFAVGKRTCSGIVTP
modifications: immobilized on carrier beads
[1]
  Share of immobilized enzyme inhibited (activity measurements after inhibition): 83%
[2]; ethyl acetate
  Initial reaction rates: 0.081 mol/g/min
[2]; vinyl butyrate
  Initial reaction rates: 0.41 mol/g/min
[3]
  Conversion at 3:1 (monoester:diester): 46%
  Maximum monoester yield: 52%

B2: T40A: CALB mutant with single mutation Thr40Ala (SEQ ID NO: 4) (protein)
chain: LPSGSDPAFSQPKSVLDAGLTCQGASPSSVSKPILLVPGXGTTGPQSFDSNWIPLSAQLGYTPCWISPPPFMLNDTQVNTEYMVNAITTLYAGSGNNKLPVLTWSQGGLVAQWGLTFFPSIRSKVDRLMAFAPDYKGTVLAGPLDALAVSAPSVWQQTTGSALTTALRNAGGLTQIVPTTNLYSATDEIVQPQVSNSPLDSSYLFNGKNVQAQAVCGPLFVIDHAGSLTSQFSYVVGRSALRSTTGQARSADYGITDCNPLPANDLTPEQKVAAAALLAPAAAAIVAGPKQNCEPDLMPYARPFAVGKRTCSGIVTP
modifications: T40 Mutant
[1]
  Share of immobilized enzyme inhibited (activity measurements after inhibition): 21%
[1]; 100 mM 1-butanol, 1 M vinyl butyrate in MTBE
  Remaining activity after inhibition: to low to measure
[2]; ethyl acetate
  Initial reaction rates: 0.002 mol/g/min
  Rate ratio, T40A/WT: 2.5%
[2]; ethyl acetate as acyl donor and solvent (FIG. 9A)
  Selectivity towards diol over 1-butanol, compared with wild type CALB: higher
[2]; vinyl butyrate
  Initial reaction rates: 0.065 mol/g/min
  Rate ratio, T40A/WT: 16%
[2]; vinyl butyrate, MTBE (FIG. 10A)
  Selectivity towards diol over 1-butanol, compared with wild type CALB: higher
[3]
  Conversion at 3:1 (monoester:diester): >95%
  Maximum monoester yield: 55-65%
